Results from US20240352477A1 (ACADEMIA SINICA, published 2024).
Values belong to the binder of their own block, whether it stands above or below them.

Legend:
[1] = target: T1, HXK6-mCherry (Ubi:HXK6-mCherry) (rice, UniProt Q8LQ68 1-506); test: co-IP with GFP-Trap from co-transfected rice protoplasts, immunoblot
T1 construct: Expressed transiently in rice protoplasts; not shown: mCherry reporter (pUbi:ccdB-mCherry vector)
Procedure: Samples were extracted from rice protoplasts in lysis buffer containing 150 mM NaCl, 0.5% NP4-0, 20 mM Tris-HCl (pH 7.5), and protease inhibitor (Roche) for 1 h at 4° C. and centrifuged at 13,000 rpm for 30 min at 4° C. Supernatants were transferred to new tubes and GFP- or RFP-conjugated proteins were pulled down with GFP-Trap®_MA beads or RFP-Trap®_MA beads. Precipitated proteins were subjected to immunoblot analysis using anti-RFP and anti-GFP antibodies.

[2] = target: T2, HXK5-GFP (Ubi:HXK5-GFP) (rice, UniProt Q5W676 1-507); test: co-IP with RFP-Trap from co-transfected rice protoplasts, immunoblot
T2 construct: Expressed transiently in rice protoplasts; not shown: GFP reporter (pUbi:ccdB-GFP vector)
Procedure: (§1) FIGS. 13a to 13b. CIPK15 and HXK5/6 interact and localize at mitochondria under aerobic and hypoxic conditions. (FIG. 13a) Rice protoplasts were co-transfected with Ubi:CIPK15-mCherry and Ubi:HXK5-GFP, Ubi:HX6-GFP or Ubi:GFP (as negative control), before being cultured in medium containing 400 mM glucose with shaking (aerobic) for 12 h. Then, total proteins were extracted and pulled down using RFP trap®. Anti-RFP and anti-GFP antibodies were used to detect co-immunoprecipitated (co-IP) CIPK15-mCherry and HXK5-GFP or GFP, respectively. (FIG. 13b) Rice protoplasts were transfected with Ubi:CIPK15-mCherry, Ubi:HXK5-mCherry or Ubi:HXK6-mCherry and stained with the mitochondrial marker MitoTracker® Green FM, before being examined under confocal microscopy. T: Transmission image. Scale bar=[…]. […]
(§2) To explore these latter interactions in vivo using co-IP assays, we co-transfected rice protoplasts with Ubi:CIPK15-mCherry and Ubi:HXK5-GFP, Ubi:HXK6-GFP or Ubi:GFP (negative control) constructs. […] Our anti-RFP antibodies detected CIPK15-mCherry proteins in all eluents of CIPK15-mCherry co-IP fractions, but anti-GFP antibodies detected HXK5-GFP and HXK6-GFP present in the CIPK15-mCherry complex (FIG. 13a).

[3] = target: T3, HXK6-GFP (Ubi:HXK6-GFP) (rice, UniProt Q8LQ68 1-506); test: as above
T3 construct: Expressed transiently in rice protoplasts; also called Ubi:HX6-GFP; not shown: GFP reporter (pUbi:ccdB-GFP vector)
Procedure: as §1, §2

[4] = target: T4, HXK6-nYFP (CaMV35S:HXK6-nYFP) (rice, UniProt Q8LQ68 1-506); test: bimolecular fluorescence complementation (BiFC) in rice protoplasts
T4 construct: BiFC construct in rice protoplasts; not shown: N-terminal half of YFP (nYFP, p35S:ccdB-nYFP vector)
Procedure: (§3) FIGS. 3a to 3g. HXK6 and VDAC1 interact with CIPK15 on mitochondria and suppress CIPK15-regulated promoters. (FIG. 3a) BiFC assay in which rice protoplasts were co-transfected with CaWV35S:cYFP-CIPK15 or CaWV-nYFP (negative control) and CaMV35S:HXK5/6-nYFP or CaMV35S:cYFP (negative control). (FIG. 3b, FIG. 3c, FIG. 3f) Rice protoplasts were transfected with plasmids, cultured in medium containing 400 mM glucose with shaking for 12 h, and then examined under confocal microscopy. Scale bar=[…]. C: cytoplasm; Mt: mitochondria. (FIG. 3b) Rice protoplasts were co-transfected with Ubi:CIPK15-mTagBFP and Ubi:HXK6-mCherry and stained with the mitochondrial marker MitoTracker® Green FM. (FIG. 3c) Rice protoplasts were co-transfected with Ubi:CIPK15-mCherry and Ubi:GFP, Ubi:HXK6-GFP, or Ubi:HXK6(Ri) constructs. (FIG. 3d, FIG. 3g) Rice protoplasts were co-transfected with effector and reporter plasmids, cultured in medium contained 400 mM glucose with shaking, and assayed for luciferase activity. (FIG. 3e) Rice protoplasts were co-transfected with Ubi:VDAC1-GFP, Ubi:CIPK15-HA and Ubi:HXK6-GFP or Ubi:HXK6-mCherry, cultured in medium containing 400 mM glucose with shaking for 12 h, and total proteins were extracted and pulled down using GFP trap®. Anti-GFP, anti-HA and anti-mRFP antibodies were used to detect HXK6-GFP or VDAC1-GFP, CIPK15-HA, and HXK6-mCherry, respectively. […]

[5] = target: T5, HXK5-nYFP (CaMV35S:HXK5-nYFP) (rice, UniProt Q5W676 1-507); test: as above
T5 construct: BiFC construct in rice protoplasts; not shown: N-terminal half of YFP (nYFP, p35S:ccdB-nYFP vector)
Procedure: as §3

T2 sequence (Q5W676 whole entry): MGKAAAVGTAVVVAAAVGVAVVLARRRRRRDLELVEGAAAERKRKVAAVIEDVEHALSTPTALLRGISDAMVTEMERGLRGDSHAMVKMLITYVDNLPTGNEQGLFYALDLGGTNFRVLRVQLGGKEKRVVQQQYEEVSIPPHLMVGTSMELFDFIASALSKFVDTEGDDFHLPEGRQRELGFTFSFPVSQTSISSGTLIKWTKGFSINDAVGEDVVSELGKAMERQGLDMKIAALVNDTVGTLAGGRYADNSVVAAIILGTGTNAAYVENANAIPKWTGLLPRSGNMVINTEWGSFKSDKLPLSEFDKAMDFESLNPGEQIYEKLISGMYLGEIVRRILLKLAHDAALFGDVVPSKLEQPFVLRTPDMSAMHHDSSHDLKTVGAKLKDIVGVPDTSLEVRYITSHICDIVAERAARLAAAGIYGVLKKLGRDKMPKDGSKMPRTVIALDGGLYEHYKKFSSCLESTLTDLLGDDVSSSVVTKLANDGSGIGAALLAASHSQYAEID
T5 sequence (Q5W676 whole entry): as above
T4 sequence (Q8LQ68 whole entry): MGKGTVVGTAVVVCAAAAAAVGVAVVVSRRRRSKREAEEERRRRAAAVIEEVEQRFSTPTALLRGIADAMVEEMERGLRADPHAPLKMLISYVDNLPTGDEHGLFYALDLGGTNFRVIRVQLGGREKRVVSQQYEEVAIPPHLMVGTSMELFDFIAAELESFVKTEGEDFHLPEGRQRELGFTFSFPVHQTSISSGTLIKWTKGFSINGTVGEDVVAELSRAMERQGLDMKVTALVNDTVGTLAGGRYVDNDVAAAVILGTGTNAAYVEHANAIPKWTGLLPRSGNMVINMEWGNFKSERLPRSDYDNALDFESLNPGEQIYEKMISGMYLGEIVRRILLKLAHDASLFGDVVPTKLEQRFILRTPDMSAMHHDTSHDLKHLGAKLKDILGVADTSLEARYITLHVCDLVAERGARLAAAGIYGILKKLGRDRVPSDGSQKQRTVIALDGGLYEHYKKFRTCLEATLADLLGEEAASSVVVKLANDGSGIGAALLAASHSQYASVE
T3 sequence (Q8LQ68 whole entry): as above
T1 sequence (Q8LQ68 whole entry): as above

- binding result [1]: binds
B1: VDAC1-GFP (Ubi:VDAC1-GFP) (other, rice, UniProt Q6K548 2-274, looked up)
chain: VGPGLYPEIGKKARDLLYRDYQTDHKFTLTTYTSNGVAITATSTKKADLIFGEIQSQIKNKNITVDVKANSDSNVVTTVTVDELTPGLKSILSFAVPDQRSGKFELQYSHDYAGVSASIGLTASPVVNLSSVFGTKALAVGADVSLDTATGNLTKYNAGLSFSNDDLIASLNLNNKGDSLTASYYHIVNHSATAVGAELTHSFSSNENSLTFGTQHTLDPLTVVKARFNNSGKASALLQHEWRPKSVWTISAEVDTKAIDKSSKVGIAVALKP
notes: Expressed transiently in rice protoplasts and pulled down with GFP-Trap; not shown: GFP reporter (pUbi:ccdB-GFP vector)

- binding result [2]: binds
- binding result [3]: binds
B2: CIPK15-mCherry (Ubi:CIPK15-mCherry) (enzyme)
chain: MESRGKILMERYELGRLLGKGTFGKVHYARNLESNQSVAIKMMDKQQILKVGLSEQIRREITTMRLVAHKNIVQLHEVMATRNKIYFVMEYVKGGELFEKVAKRGKLTEVVAHKYFQQLISAVDYCHSRGVYHRDLKPENLLLDENENLKVSDFGLSALSESKRQDGLLHTTCGTPAYVAPEVISKIGYDGAKSDIWSCGVILFVLVAGYLPFQGPNLMEMYRKIQHGEFRCPGWFSRKLQKLLYKIMDPNPSTRISIQKIKESTWFRKGPEENRILKERTLNENTTKNVAPVLGVRRKKNAHEDVKPMSVTNLNAFEIISFSKGFDLSGMFIVKEWRNEARFTSDKSASTIISKLEDVAKALNLRVRKKDNGVVKMQGRKEGRNGVLQFDIEIFEVTTSYHIIEMKQTSGDSLEYRQLLEEGIRPALKDIVLA
notes: Expressed transiently in rice protoplasts; not shown: mCherry reporter (pUbi:ccdB-mCherry vector)

- binding result [4]: binds
- binding result [5]: binds
B3: cYFP-CIPK15 (CaMV35S:cYFP-CIPK15) (enzyme)
chain: B2 chain
notes: BiFC construct in rice protoplasts; not shown: C-terminal half of YFP (cYFP, p35S:cYFP-ccdB vector)
